Reference: paper PMC5221731

Biological target: N-terminally hexahistidine-tagged wildtype Chinese hamster BiP, unmodified (non-AMPylated) (Chinese hamster) (UniProt G3I8R9)
Assay: native gel or EMSA

“N-terminally hexahistidine-tagged wildtype Chinese hamster BiP, unmodified (non-AMPylated) (from UniProt G3I8R9 19-654) (natural protein)” showed a stoichiometry N of 2.
